From patent publication US6482925 come the findings set out here.

Positions count from the first letter of the chain named. Numbers in names are those of the source. Like-named read-outs stand apart in the source and are kept apart here.

The target in assay [1] is MHC class II molecules on Daudi B cells. Put plainly: 51Cr Daudi cell adhesion; wild-type expression titrated by DNA quantity.
Assay [2] has the same target. Put plainly: 51Cr Daudi cell adhesion to transfected Cos-7 cells; cpm relative to wild-type, background not subtracted.
Assay [3] has the same target. Nature of the assay: 51Cr Daudi cell adhesion to transfected Cos-7 cells.
For assay [4] the target is unchanged. Described as above. The source holds these as a separate data set.

In assay [1], “LAG-3 deletion mutant (54/66), deletion of the tip of the external loop (from UniProt P18627 23-492) (receptor)” yielded a reduction of bound cpm against wild-type LAG-3 at comparable expression of 40%. For the same molecule, the Adhesion (relative to wild-type LAG-3) in assay [2] was found to be 0.08.

On to “LAG-3 deletion mutant (D2), deletion of domain D2 (from UniProt P18627 23-492) (receptor)”, for which the reduction of bound cpm against wild-type LAG-3 at comparable expression in assay [1] is 40%. In addition, the Adhesion (relative to wild-type LAG-3) in assay [2] was 0.11.

B1: LAG-3 mutant R75E (receptor)
chain: LQPGAEVPVVWAQEGAPAQLPCSPTIPLQDLSLLRRAGVTWQHQPDSGPPAAAPGHPLAPGPHPAAPSSWGPRPERYTVLSVGPGGLRSGRLPLQPRVQLDERGRQRGDFSLWLRPARRADAGEYRAAVHLRDRALSCRLRLRLGQASMTASPPGSLRASDWVILNCSFSRPDRPASVHWFRNRGQGRVPVRESPHHHLAESFLFLPQVSPMDSGPWGCILTYRDGFNVSIMYNLTVLGLEPPTPLTVYAGAGSRVGLPCRLPAGVGTRSFLTAKWTPPGGGPDLLVTGDNGDFTLRLEDVSQAQAGTYTCHIHLQEQQLNATVTLAIITVTPKSFGSPGSLGKLLCEVTPVSGQERFVWSSLDTPSQRSFSGPWLEAQEAQLLSQPWQCQLYQGERLLGAAVYFTELSSPGAQRSGRAPGALPAGHLLLFLTLGVLSLLLLVTGAFGFHLWRRQWRPRRFSALEQGIHPRRLRAR
For B1, the fold increase of binding against wild-type LAG-3 in assay [3] was > 3 fold. For the same molecule, the Adhesion (relative to wild-type LAG-3) in assay [2] amounted to 4.1.

B2: wild-type LAG-3 (lymphocyte activation gene 3 protein) (receptor)
chain: B1 chain with E75R
In assay [2], B2 showed an Adhesion (relative to wild-type LAG-3) of 1.

B3: LAG-3 mutant H56F (receptor)
chain: B1 chain with H56F, E75R
On to B3, for which, in assay [2], the Adhesion (relative to wild-type LAG-3) was determined as 0.89.

B4: LAG-3 double mutant D133A/R134A (receptor)
chain: B1 chain with E75R, D133A, R134A
B4 gave an Adhesion (relative to wild-type LAG-3) in assay [2] of 0.78.

B5: LAG-3 mutant Q13A (receptor)
chain: B1 chain with Q13A, E75R
In assay [2], B5 returned an Adhesion (relative to wild-type LAG-3) of 0.92.

B6: LAG-3 mutant R75A (receptor)
chain: B1 chain with E75A
Regarding B6, the fold increase of binding against wild-type LAG-3 in assay [3] is > 3 fold. This molecule showed an Adhesion (relative to wild-type LAG-3) in assay [2] of 4.2.

B7: LAG-3 mutant R88A (receptor)
chain: B1 chain with E75R, R88A
In turn, B7 yielded an Adhesion (relative to wild-type LAG-3) in assay [2] of 0.18.

B8: LAG-3 mutant Y77F (receptor)
chain: B1 chain with E75R, Y77F
Take B8: the reduction of bound cpm against wild-type LAG-3 at comparable expression in assay [1] is 40%. The Adhesion (relative to wild-type LAG-3) in assay [2] stood at 0.05.

B9: LAG-3 mutant R115A (receptor)
chain: B1 chain with E75R, R115A
In assay [1], B9 had a reduction of bound cpm against wild-type LAG-3 at comparable expression of 40%. In assay [2], this molecule came in with an Adhesion (relative to wild-type LAG-3) of 0.23.

B10: LAG-3 mutant R107K (receptor)
chain: B1 chain with E75R, R107K
With B10, in assay [2], the Adhesion (relative to wild-type LAG-3) worked out at 1.02.

B11: LAG-3 mutant R103A (receptor)
chain: B1 chain with E75R, R103A
In the case of B11, in assay [3], the fold reduction of binding against wild-type LAG-3 is 2 fold. In assay [2], this molecule gave an Adhesion (relative to wild-type LAG-3) of 0.49.

B12: LAG-3 mutant R73E (receptor)
chain: B1 chain with R73E, E75R
Consider B12, for which the fold increase of binding against wild-type LAG-3 in assay [3] is > 3 fold. The Adhesion (relative to wild-type LAG-3) in assay [2] is 3.25.

B13: LAG-3 mutant H63A (receptor)
chain: B1 chain with H63A, E75R
For the molecule B13, in assay [2], the Adhesion (relative to wild-type LAG-3) came out at 0.83.

B14: LAG-3 mutant R76E (receptor)
chain: B1 chain with E75R, R76E
With B14, the fold increase of binding against wild-type LAG-3 in assay [3] is > 3 fold. In assay [2], this molecule came in with an Adhesion (relative to wild-type LAG-3) of 2.95.

B15: LAG-3 mutant D225L (receptor)
chain: B1 chain with E75R, D225L
B15: the Adhesion (relative to wild-type LAG-3) in assay [2] is 0.89.

B16: LAG-3 mutant H63F (receptor)
chain: B1 chain with H63F, E75R
In turn, B16 yielded an Adhesion (relative to wild-type LAG-3) in assay [2] of 0.91.

B17: LAG-3 mutant H56A (receptor)
chain: B1 chain with H56A, E75R
As for B17, in assay [1], the reduction of bound cpm against wild-type LAG-3 at comparable expression came out at 40%. The fold reduction of binding against wild-type LAG-3 in assay [3] was 2 fold; in assay [4], > 2 fold. In assay [2], this molecule gave an Adhesion (relative to wild-type LAG-3) of 0.45.

B18: LAG-3 mutant D109E (receptor)
chain: B1 chain with E75R, D109E
In assay [2], B18 gave an Adhesion (relative to wild-type LAG-3) of 0.18.

B19: LAG-3 mutant D30A (receptor)
chain: B1 chain with D30A, E75R
Consider B19, for which, in assay [1], the reduction of bound cpm against wild-type LAG-3 at comparable expression turned out to be 40%. The fold reduction of binding against wild-type LAG-3 in assay [3] was found to be 2 fold. Besides, the Adhesion (relative to wild-type LAG-3) in assay [2] was found to be 0.41.
